Source: publication PMC3399880, “Genomic Organisation, Embryonic Expression and Biochemical Interactions of the Zebrafish Junctional Adhesion Molecule Family of Receptors” (PLoS ONE, 2012)
Blank lines part the entries; values can stand above or below the molecule they belong to.

B1: zebrafish Jamc ectodomain (extracellular IgSF domains) fused to rat Cd4 domains 3 and 4 (domain or fragment, UniProt A3KPA0 24-235, looked up)
chain: VLLKSTNSKPWVNEFESIELSCMIESITTTKPRIEWKKIKNGDPSYVYFDNQISGDLERRAKIREPATLVILNATRSDSADYRCEVTAPNDQKSFDEILISLTVRVKPVVPRCSVPKSIPVGKPAELHCLEDEGYPKSQYQWFRNKEEIPLDPKSSPKFFNSTYTLDGEMGTLKFSAVRKEDAGEYYCRAKNEAGISECGPQMMEVYDINIA
notes: Jamc (official symbol jam3b), zebrafish orthologue of JAM-C; extracellular IgSF domains; Stood both as analyte and as ligand (6H and bio forms); also called Jam3b; JAM-C orthologue; source: mammalian expression system, purified; analyte resolved by gel filtration immediately before use; not shown: rat Cd4 domains 3 and 4, C-terminal, kept

Tests used:
Assay in all cases: SPR; systematic all-against-all screen of the six ectodomains, each as analyte and as ligand; dissociation phase of three concentrations of purified analyte averaged and fitted to a first-order decay curve; t1/2 = ln 2/kd; 28°C; half-lives in the text are the average of both orientations; t1/2 <=0.1 s not quantifiable (10 Hz instrument)
[1] = molecular target: zebrafish Jamc ectodomain (extracellular IgSF domains) fused to rat Cd4 domains 3 and 4 (zebrafish) (UniProt A3KPA0)
[2] = molecular target: zebrafish Jamc2 ectodomain (extracellular IgSF domains) fused to rat Cd4 domains 3 and 4 (zebrafish)
[3] = molecular target: the molecule itself
[4] = molecular target: B1; settings: both partners purified

t1/2 (half-life of the complex) [2]: 7 s
Molecule: zebrafish Jamb ectodomain (extracellular IgSF domains) fused to rat Cd4 domains 3 and 4 (from UniProt A0A0R4IGV4 19-226) (domain or fragment)

t1/2 (half-life of the complex) [2]: 0.11 s
Molecule: zebrafish Jamc2 ectodomain (extracellular IgSF domains) fused to rat Cd4 domains 3 and 4 (from UniProt A0ACD6B6E9 1-301) (domain or fragment)

t1/2 (half-life of the complex) [4]: ~1.63 s
B2: zebrafish Jamb ectodomain (extracellular IgSF domains) fused to rat Cd4 domains 3 and 4 (domain or fragment, UniProt A0A0R4IGV4 19-226, looked up)
chain: VTVSSRNPKVEVHEFSDAELSCEFKTEKDTNPRIEWKRKDKEKDVSFVYYGERFVGPFQDRADIEGATVRLRRVTQADAGEYRCEVSAPSDSISLGETNVTLRVLVPPQTPSCDVPSSALTGSQVELRCRDRHSIPPAVYTWYKDNRALPIRHPNATYTVNEFTGVLIPQSHYNPGTVCQHCMYHPNYHIPNTQLTTTFQTHDLNVAA
notes: Jamb (official symbol jam2a), zebrafish orthologue of JAM-B; extracellular IgSF domains; Stood both as analyte and as ligand (6H and bio forms); also called Jam2a; JAM-B orthologue; source: mammalian expression system, purified; analyte resolved by gel filtration immediately before use; not shown: rat Cd4 domains 3 and 4, C-terminal, kept

The remaining lines, values behind:

Molecule: zebrafish Jamb2 ectodomain (extracellular IgSF domains) fused to rat Cd4 domains 3 and 4 (from UniProt B0V233 1-306) (domain or fragment)
t1/2 (half-life of the complex) [1]: 0.26 s

Molecule: B1
t1/2 (half-life of the complex) [3]: 0.67 s
